{"source": "patent US20220112250A1", "molecular_target": "Rat CaV2.2 channel (α1B splice variant e37a, α2δ1 and β3) expressed in HEK293T cells (rat) (UniProt Q02294)", "sequence (Q02294 other isoform, or with tags, fused parts or gaps mutant, chain 1 of 3)": "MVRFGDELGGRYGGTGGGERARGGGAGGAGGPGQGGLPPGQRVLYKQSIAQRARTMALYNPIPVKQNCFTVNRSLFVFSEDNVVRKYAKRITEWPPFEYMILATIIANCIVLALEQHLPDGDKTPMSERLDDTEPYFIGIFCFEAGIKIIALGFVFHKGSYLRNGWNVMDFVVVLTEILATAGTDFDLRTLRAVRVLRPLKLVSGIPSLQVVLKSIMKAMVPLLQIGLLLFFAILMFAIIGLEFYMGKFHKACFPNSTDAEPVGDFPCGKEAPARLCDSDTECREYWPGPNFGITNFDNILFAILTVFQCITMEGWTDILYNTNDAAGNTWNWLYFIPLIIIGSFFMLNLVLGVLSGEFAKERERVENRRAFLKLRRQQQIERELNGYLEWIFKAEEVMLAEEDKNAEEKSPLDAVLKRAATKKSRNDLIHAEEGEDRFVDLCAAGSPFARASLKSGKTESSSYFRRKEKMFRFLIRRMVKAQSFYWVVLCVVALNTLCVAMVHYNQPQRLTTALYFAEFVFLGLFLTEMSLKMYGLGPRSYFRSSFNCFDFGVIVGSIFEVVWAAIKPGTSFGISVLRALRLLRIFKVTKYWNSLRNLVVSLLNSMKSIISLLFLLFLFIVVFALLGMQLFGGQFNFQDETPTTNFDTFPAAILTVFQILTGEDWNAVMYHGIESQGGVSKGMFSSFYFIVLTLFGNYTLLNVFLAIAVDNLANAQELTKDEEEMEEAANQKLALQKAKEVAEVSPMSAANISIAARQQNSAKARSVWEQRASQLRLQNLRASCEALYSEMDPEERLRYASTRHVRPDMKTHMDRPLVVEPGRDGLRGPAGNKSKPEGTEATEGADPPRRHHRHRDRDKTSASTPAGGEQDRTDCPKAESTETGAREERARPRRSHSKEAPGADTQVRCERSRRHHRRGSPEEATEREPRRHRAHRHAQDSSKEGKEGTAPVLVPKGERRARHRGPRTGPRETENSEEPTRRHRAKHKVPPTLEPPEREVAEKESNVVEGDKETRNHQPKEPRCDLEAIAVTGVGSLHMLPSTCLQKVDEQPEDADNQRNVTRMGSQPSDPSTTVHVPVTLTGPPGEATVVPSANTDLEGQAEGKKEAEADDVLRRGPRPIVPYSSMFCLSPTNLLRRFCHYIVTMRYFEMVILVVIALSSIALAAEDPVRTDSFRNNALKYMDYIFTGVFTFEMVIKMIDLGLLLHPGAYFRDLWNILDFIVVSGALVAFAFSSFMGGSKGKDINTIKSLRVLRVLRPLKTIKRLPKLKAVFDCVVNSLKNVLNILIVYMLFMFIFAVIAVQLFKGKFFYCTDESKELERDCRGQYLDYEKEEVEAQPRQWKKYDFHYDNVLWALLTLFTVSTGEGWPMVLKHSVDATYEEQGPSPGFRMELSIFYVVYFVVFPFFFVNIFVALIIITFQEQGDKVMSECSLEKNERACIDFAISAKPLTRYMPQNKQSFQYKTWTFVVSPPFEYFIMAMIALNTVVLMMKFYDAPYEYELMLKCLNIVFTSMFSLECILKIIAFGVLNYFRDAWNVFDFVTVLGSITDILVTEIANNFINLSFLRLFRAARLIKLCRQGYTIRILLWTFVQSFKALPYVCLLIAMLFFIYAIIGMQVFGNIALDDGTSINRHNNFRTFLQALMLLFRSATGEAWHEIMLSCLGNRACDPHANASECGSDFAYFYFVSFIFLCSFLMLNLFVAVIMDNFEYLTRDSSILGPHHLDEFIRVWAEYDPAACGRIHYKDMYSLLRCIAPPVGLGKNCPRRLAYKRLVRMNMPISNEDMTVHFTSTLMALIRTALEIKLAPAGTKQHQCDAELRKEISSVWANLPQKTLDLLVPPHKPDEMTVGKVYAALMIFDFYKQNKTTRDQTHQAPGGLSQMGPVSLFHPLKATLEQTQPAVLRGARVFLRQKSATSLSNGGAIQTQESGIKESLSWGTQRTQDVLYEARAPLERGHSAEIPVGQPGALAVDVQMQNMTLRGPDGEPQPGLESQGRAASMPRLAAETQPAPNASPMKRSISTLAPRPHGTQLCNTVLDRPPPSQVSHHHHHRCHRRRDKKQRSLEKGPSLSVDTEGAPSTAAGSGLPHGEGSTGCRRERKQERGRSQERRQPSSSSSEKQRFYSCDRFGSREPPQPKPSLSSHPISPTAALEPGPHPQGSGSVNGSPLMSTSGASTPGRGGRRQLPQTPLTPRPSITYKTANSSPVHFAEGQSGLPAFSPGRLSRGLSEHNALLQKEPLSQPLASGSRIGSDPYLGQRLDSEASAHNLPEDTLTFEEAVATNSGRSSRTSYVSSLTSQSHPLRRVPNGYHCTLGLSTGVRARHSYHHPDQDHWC", "sequence (P54290 25-1091, stated change not applied, chain 2 of 3, further chain)": "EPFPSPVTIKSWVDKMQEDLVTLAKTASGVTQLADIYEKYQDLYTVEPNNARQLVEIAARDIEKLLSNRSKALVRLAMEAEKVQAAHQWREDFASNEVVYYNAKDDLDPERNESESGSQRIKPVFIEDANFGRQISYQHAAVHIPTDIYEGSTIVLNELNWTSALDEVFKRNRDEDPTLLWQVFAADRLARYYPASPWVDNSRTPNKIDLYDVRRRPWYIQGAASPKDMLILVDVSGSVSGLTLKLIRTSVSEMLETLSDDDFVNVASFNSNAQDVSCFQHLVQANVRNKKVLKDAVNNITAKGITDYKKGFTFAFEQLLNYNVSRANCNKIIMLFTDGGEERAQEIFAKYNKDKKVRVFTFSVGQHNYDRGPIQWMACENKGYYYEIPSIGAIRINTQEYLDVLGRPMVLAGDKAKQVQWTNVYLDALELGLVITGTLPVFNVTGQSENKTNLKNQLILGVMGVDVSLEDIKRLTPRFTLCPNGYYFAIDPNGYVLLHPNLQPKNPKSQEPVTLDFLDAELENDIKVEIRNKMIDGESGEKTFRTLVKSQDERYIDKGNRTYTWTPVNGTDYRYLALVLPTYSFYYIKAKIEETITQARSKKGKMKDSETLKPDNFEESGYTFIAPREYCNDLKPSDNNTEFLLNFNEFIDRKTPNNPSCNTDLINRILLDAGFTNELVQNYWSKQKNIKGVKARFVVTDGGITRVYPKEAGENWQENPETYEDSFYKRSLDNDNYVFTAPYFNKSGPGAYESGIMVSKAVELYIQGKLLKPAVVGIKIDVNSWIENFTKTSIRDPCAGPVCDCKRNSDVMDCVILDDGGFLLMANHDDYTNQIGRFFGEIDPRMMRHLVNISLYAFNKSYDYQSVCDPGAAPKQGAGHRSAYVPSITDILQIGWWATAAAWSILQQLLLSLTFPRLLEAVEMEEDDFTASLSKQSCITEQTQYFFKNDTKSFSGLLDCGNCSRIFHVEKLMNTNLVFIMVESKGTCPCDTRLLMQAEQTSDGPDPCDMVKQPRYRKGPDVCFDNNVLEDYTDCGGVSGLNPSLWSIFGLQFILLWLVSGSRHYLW", "sequence (P54287 whole entry, stated change not applied, chain 3 of 3, further chain, canonical isoform)": "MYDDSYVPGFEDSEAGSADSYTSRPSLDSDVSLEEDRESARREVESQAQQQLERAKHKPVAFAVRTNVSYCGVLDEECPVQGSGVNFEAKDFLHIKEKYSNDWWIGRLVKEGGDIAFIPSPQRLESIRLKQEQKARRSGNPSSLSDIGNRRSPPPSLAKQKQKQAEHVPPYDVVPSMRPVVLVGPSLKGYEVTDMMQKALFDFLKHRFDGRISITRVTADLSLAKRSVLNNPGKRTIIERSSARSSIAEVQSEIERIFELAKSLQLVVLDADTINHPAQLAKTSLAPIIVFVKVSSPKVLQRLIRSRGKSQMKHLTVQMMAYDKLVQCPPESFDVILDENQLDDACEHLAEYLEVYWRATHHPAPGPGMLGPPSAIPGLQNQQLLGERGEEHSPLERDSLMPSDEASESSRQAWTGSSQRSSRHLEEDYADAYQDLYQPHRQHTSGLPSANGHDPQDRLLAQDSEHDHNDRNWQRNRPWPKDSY", "assay": "cell-based or functional assay", "data": [{"substance": "MVIIA (ziconotide) (peptide)", "values": [{"measurement": "half inhibitory concentration of CaV2.2 channel current", "value": 0.0436, "unit": "µM"}]}]}
